Laboratory results published in patent publication US20050142135A1, “Agents and methods for modulating interactions between gonadotropin hormones and receptors” (University of Kentucky Research Foundation, priority 2003, published 2005).
Changes are numbered by the printed parent chain.

B1: P^24A: human FSHR with Ala substituted for P24 (protein)
chain: CHHRICHCSNRVFLCQESKVTEIASDLPRNAIELRFVLTKLRVIQKGAFSGFGDLEKIEISQNDVLEVIEADVFSNLPKLHEIRIEKANNLLYINPEAFQNLPNLQYLLISNTGIKHLPDVHKIHSLQKVLLDIQDNINIHTIERNSFVGLSFESVILWLNKNGIQEIHNCAFNGTQLDELNLSDNNNLEELPNDVFHGASGPVILDISRTRIHSLPSYGLENLKKLRARSTYNLKKLPTLEKLVALMEASLTYPSHCCAFANWRRQISELHPICNKSILRQEVDYMTQARGQRSSLAEDNESSYSRGFDMTYTEFDYDLCNEVVDVTCSPKPDAFNPCEDIMGYNILRVLIWFISILAITGNIIVLVILTTSQYKLTVPRFLMCNLAFADLCIGIYLLLIASVDIHTKSQYHNYAIDWQTGAGCDAAGFFTVFASELSVYTLTAITLERWHTITHAMQLDCKVQLRHAASVMVMGWIFAFAAALFPIFGISSYMKVSICLPMDIDSPLSQLYVMSLLVLNVLAFVVICGCYIHIYLTVRNPNIVSSSSDTRIAKRMAMLIFTDFLCMAPISFFAISASLKVPLITVSKAKILLVLFHPINSCANPFLYAIFTKNFRRDFFILLSKCGCYEMQAQIYRTETSSTVHNTHPRNGHCSSAPRVTSGSTYILVPLSHLAQN
B2: L^27A: human FSHR with Ala substituted for L27 (protein)
chain: B1 chain with A24P, L27A
B3: C^15A: human FSHR with Ala substituted for C15 (protein)
chain: B1 chain with C15A, A24P
B4: wild type: wild type human FSH receptor expressed in HEK 293 cells (protein)
chain: B1 chain with A24P
B5: D^26A: human FSHR with Ala substituted for D26 (protein)
chain: B1 chain with A24P, D26A
B6: L^583 Y: human FSHR mutant, Tyr for L583 (protein)
chain: B1 chain with A24P, L584Y

What was measured:
[1] = tested on: human FSHR; assay: ^125I-FSH binding to wild type and mutant FSH receptors on intact stably transfected HEK 293 cells; settings: for FSH binding / Kd compared with the wild type receptor, in words: intact HEK 293 cells
Protocol: Mutant FSHR cDNAs were prepared in the pSELECT vector using the Altered Sites Mutagenesis system (Promega), sequenced on a Beckman CEQ 2000XL capillary sequencer, subcloned into pcDNA3 (Invitrogen), and sequenced again to verify mutation sequences. […] Wild type and mutant receptor constructs were transfected into HEK 293 cells by the calcium phosphate method as previously described. Stable cell lines were established in minimum essential medium containing 10% horse serum and 500 μg/ml of G418. These cells were used for hormone binding, cAMP production. All assays were carried out in duplicate and repeated 4-5 times, and means±S.D. were calculated.
The Kd values were determined by Scatchard plots. For intracellular cAMP assay, cells were washed twice with Dulbecco's modified Eagle's medium and incubated in the medium containing 0.1 μg/ml isobutylmethylxanthine for 15 mm. Increasing concentrations of FSH were then added and incubation was continued for 45 mm at 37° C. After removing the medium, the cells were rinsed once with fresh medium without isobutylmethylxanthine, lysed in 70% ethanol, freeze-thawed in liquid nitrogen, and scraped.
Each mutant human FSHR cDNA was prepared in a pSELECT vector using the non-PCR based Altered Sites Mutagenesis System (Promega), sequenced on a Beckman CEQ 2000XL capillary sequencer and subcloned into pcDNA3 (Invitrogen) as described. After subcloning pcDNA3 the mutant cDNAs were sequenced again. Plasmids were transfected into human embryonic kidney (HEK) 293 cells by the calcium phosphate method. Stable cell lines were established in minimum essential medium containing 10% horse serum and 500 μg/ml of G-418, and then used for hormone binding and cAMP assay. All assays were carried out in duplicate and repeated 4-6 times. Means and standard variations were calculated.
Human FSH (the National Hormone and Pituitary Program) was radioiodinated as previously described for radioiodination of hCG. […] The Kd values were determined by Scatchard plots. Truncated exodomain was solubilized in Nonidet P-40 and assayed for hormone binding as described previously. For intracellular cAMP assay, cells were washed twice with Dulbecco's modified Eagle's media and incubated in the media containing isobutylmethylxanthine (0.1 mg/ml) for 15 minutes. Increasing concentrations of FSH were then added and the incubation was continued for 45 minutes at 37° C. After removing the media, the cells were rinsed once with fresh media without isobutylmethylxanthine, lysed in 70% ethanol, freeze-thawed in liquid nitrogen, and scraped. […] Exoloop 3 of FSHR was modeled based on the crystal structure of rhodopsin as a template.

[2] = tested on: FSHR; assay: ^125I-FSH binding to solubilized FSHR (NP-40); parameters: species or system human; settings: solubilized mutant receptors
Protocol: Transfected cells were washed twice with ice cold 150 mM NaCl, 20 mM HEPES, pH 7.4 (buffer A). Cells were scraped on ice, collected in buffer A containing protease inhibitors (1 mM phenylmethylsulfonyl fluoride, 5 mM N-ethylmaleimide, and 10 mM EDTA), and pelleted by centrifugation at 1300×g for 10 minutes. Cells were resuspended in 0.6 ml of buffer A containing 1% NP-40, 20% glycerol, and the above protease inhibitors (buffer B), incubated on ice for 15 mm, and diluted with 5.4 ml of buffer A containing 20% glycerol plus the protease inhibitors (buffer C). The mixture was centrifuged at 100,000×g for 60 minutes. […] After incubation for 12 hours at 4° C., the solution was thoroughly mixed with 250 μl of buffer A containing bovine γ-globulin (5 μg/ml) and 750 μl of buffer A containing 20% polyethylene glycol 8000. After incubation for 10 minutes at 4° C., samples were pelleted at 1300×g for 30 mm and supernatants removed. Pellets were resuspended in 1.5 ml of buffer A containing 20% polyethylene glycol 8000, centrifuged, and counted for radioactivity.

[3] = tested on: human FSHR; assay: Inositol phosphate assay, FSHR exoloop 3 mutants in HEK 293 cells, FSH stimulated; assay type: cell-based; settings: for IPt (CPM): total IP production in response to increasing concentrations of FSH, NS = not significant
Protocol: Stable cells were plated in 12 well plates and grown in inositol free DMEM (Atlanta Biologicals) supplemented with 8% heat-inactivated horse serum and 2 μCi/ml ^3H-inositol (N EN) for 48 h to 40-50% confluency. After removing the medium, the cells were incubated in 1 ml of fresh wash buffer consisting of DMEM without inositol and 15 mM HEPES (pH 7.3) for 1 hour at 37° C. This medium was removed and 0.3 ml wash buffer containing 20 mM LiCl was added and incubated for 15 minutes at 37° C. After the cells were stimulated with increasing concentrations of hormone for 30 minutes at 37° C., the incubation was terminated by the removal of medium and the addition of 0.25 ml of 0.6 N HCl to each well. The cells were scraped and transferred into microcentrifuge tubes, and the wells were again washed with 0.25 ml of 0.6 N HCl. The combined washes were treated with 0.9 ml of a mixture of chloroform:methanol (2:1), vortexed and centrifuged at 1000×g for 5 minutes at room temperature. The top aqueous layer, which was free of phospholipids, was removed and the remaining chloroform layer treated with 0.2 ml of methanol:water (1:1), vortexed and centrifuged. This aqueous layer was added to the previous aqueous layer and the samples dried in a vacuum concentrator. The dried samples were redissolved in 0.5 ml of 50 mM Tris-HCl, pH 8 and applied to Dowex AG 1-X8 formate (BIO-RAD) columns. The microcentrifuge tubes were washed twice with 0.5 ml of the same buffer and the washes applied to the columns for a total of 1.5 ml. The columns were sequentially washed with 4.5 ml H2O and 4.5 ml 60 mM ammonium formate and 5 mM sodium tetraborate to elute the free inositol and the glycerol phosphoinositol. IP1, IP2 and IP3 were sequentially eluted with 4 ml of 0.1 N formic acid in 0.2 M, 0.75 M ammonium formate and 1.1 M ammonium formate, respectively and collected in 1 ml fractions. Aliquots of 200 μl were counted for radioactivity in 1.5 ml of Ultima AF scintillation fluid (Packard). Peak radioactivities were used for the data analysis.
Target sequence in this assay (P23945 18-366 limits assumed): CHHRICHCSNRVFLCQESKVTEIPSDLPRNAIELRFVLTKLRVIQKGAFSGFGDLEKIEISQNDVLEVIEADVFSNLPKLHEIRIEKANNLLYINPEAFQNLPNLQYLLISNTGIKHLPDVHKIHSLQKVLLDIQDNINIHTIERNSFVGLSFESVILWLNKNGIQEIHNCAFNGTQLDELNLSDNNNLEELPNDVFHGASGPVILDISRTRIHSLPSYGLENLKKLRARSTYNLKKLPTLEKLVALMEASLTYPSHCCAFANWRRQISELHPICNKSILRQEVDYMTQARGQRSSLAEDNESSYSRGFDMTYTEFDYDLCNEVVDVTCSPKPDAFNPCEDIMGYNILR

[4] = tested on: human FSHR; assay: FSH dependent intracellular cAMP assay, wild type and mutant FSHR in HEK 293 cells; assay type: cell-based; settings: HEK 293 cells

Row | Molecule | FSH binding / Kd compared with the wild type receptor, in words [1] | FSH binding to receptors solubilized in NP-40 [2] | Kd ([1]; ^125I-FSH binding, Scatchard plots, HEK 293 cells) [nM] | IPt (CPM) [3] | IP induction (IP1, IP2, IP3, IPt) in response to FSH, in words ([3]; HEK 293 cells) | FSH dependent cAMP induction / EC50 compared with the wild type receptor, in words [4]
1 | B1 | completely abrogated hormone binding | did not bind |  |  |  | 
2 | B2 | completely abrogated hormone binding | did not bind |  |  |  | 
3 | B3 | abolished hormone binding | did not bind |  |  |  | 
4 | B4 |  |  | 4 | 1,660 ± 240 CPM |  | 
5 | B5 | completely abrogated hormone binding | did not bind |  |  |  | 
6 | B6 |  |  |  | 440 ± 17 CPM | produced a small amount of IPt | induced significant amounts of cAMP with reasonable EC50 values
